Assay results reported in the supplement of paper PMC12042874.
± gives the uncertainty stated by the source.

Assay: amyloid nucleation score (Sup35N fusion, yeast selection) (log enrichment); library NNK2; higher = more nucleation; inactive = no reads after selection
Summary of the method: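 Sup35N fusions to peptides of 20 random codons were expressed in psi-negative yeast, induced 24 hours with 100 μM copper sulfate, and grown 7 days at 30°C on medium lacking adenine and uracil. Input and output plasmid inserts were sequenced by Illumina. The nucleation score is the DiMSum log enrichment of output over input reads, centred on the mode score of non-aggregating sequences. Sequences with under 100 input reads were excluded.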

With MERDCVRVDLFRVSRGGWML as the substance, how does the amyloid nucleation score read?
The amyloid nucleation score was 5.863 ± 0.052.

Which amyloid nucleation score does the source give for MEYPRLRSHNTAIFTLFQRP here?
The amyloid nucleation score was 5.38 ± 0.055.

With MEYRGQVQGCSYPWVYRLGW as the substance, how does the amyloid nucleation score read?
The amyloid nucleation score was -0.078 ± 0.54.

For MFAGLIVLCLVWVYRRC, which amyloid nucleation score is on record?
The amyloid nucleation score was 4.89 ± 0.061.

Which amyloid nucleation score does the source give for MFCIWRE here?
Its amyloid nucleation score is 0.907 ± 0.2.

Which amyloid nucleation score does the source give for MFFSFNVFDFGPL here?
The amyloid nucleation score was 4.698 ± 0.036.

For MFIWPCYFHNIRVGQLFGFG, which amyloid nucleation score is on record?
Its amyloid nucleation score is 0.091 ± 0.63.

For MFLVSFRCVSYSAWYLTYMQ, which amyloid nucleation score is on record?
Its amyloid nucleation score is -0.338 ± 0.63.

For MFSFCRGSANSRLAQKDIVN, which amyloid nucleation score is on record?
Its amyloid nucleation score is 0.023 ± 0.3.

With MGAAITSGEGYDLRLLIDNS as the substance, how does the amyloid nucleation score read?
Its amyloid nucleation score is 0.208 ± 1.1.

Which amyloid nucleation score does the source give for MGRLNVYLNVRLISKVIGIQ here?
The amyloid nucleation score was 3.63 ± 0.053.

With MGTPTTEIGALTMGSEPFV as the substance, how does the amyloid nucleation score read?
The amyloid nucleation score was 1.24 ± 0.39.

With MHCIFSNLV as the substance, how does the amyloid nucleation score read?
The amyloid nucleation score was “inactive”.

Which amyloid nucleation score does the source give for MHCSESSYYFAILRARHVLL here?
The amyloid nucleation score was 1.43 ± 0.12.

For MHMAYSLNMSHSHIRAKAGM, which amyloid nucleation score is on record?
The amyloid nucleation score was 1.06 ± 0.27.

Which amyloid nucleation score does the source give for MHMLWETTRWASWCGYLCMG here?
The amyloid nucleation score was 4.93 ± 0.059.

Which amyloid nucleation score does the source give for MHSFLFLVIAM here?
Its amyloid nucleation score is “inactive”.

Which amyloid nucleation score does the source give for MHWFPPYDWK here?
The amyloid nucleation score was 0.266 ± 1.

Which amyloid nucleation score does the source give for MICDLMAVVNVQSKWRYSDK here?
Its amyloid nucleation score is 5.052 ± 0.038.

With MIGGDGPRDV as the substance, how does the amyloid nucleation score read?
The amyloid nucleation score was 0.745 ± 0.38.

For MILHCGASKGIPFLFGKDFL, which amyloid nucleation score is on record?
Its amyloid nucleation score is -0.208 ± 0.16.

For MISRSFPQSVFFLTDLWS, which amyloid nucleation score is on record?
The amyloid nucleation score was -0.667 ± 0.31.

With MITVFGLVTFVVIVSTESPI as the substance, how does the amyloid nucleation score read?
The amyloid nucleation score was 3.8 ± 0.075.

For MIVLKRSPSLCSIS, which amyloid nucleation score is on record?
The amyloid nucleation score was -0.007 ± 0.34.

Which amyloid nucleation score does the source give for MIWTKRLDDHELCLGSRSML here?
The amyloid nucleation score was -0.739 ± 0.79.

With MKGAKGDNFCIMV as the substance, how does the amyloid nucleation score read?
The amyloid nucleation score was “inactive”.

With MKLFISNHTLWSIGKGDGVT as the substance, how does the amyloid nucleation score read?
The amyloid nucleation score was “inactive”.

For MKLNVWGFFDGKQRLMESAA, which amyloid nucleation score is on record?
The amyloid nucleation score was -1.2 ± 1.1.

Which amyloid nucleation score does the source give for MKMEY here?
The amyloid nucleation score was 0.31 ± 0.42.

Which amyloid nucleation score does the source give for MKNFNVYSTYWLCMGEYGCL here?
Its amyloid nucleation score is 6.34 ± 0.078.

For MKPSGFRGILGTELRMKGWT, which amyloid nucleation score is on record?
The amyloid nucleation score was 0.74 ± 0.57.

With MKVVNCGCKHIFLRHCYALR as the substance, how does the amyloid nucleation score read?
Its amyloid nucleation score is -0.605 ± 0.45.

With MLAWWPFRKWRVLIRGSRGF as the substance, how does the amyloid nucleation score read?
Its amyloid nucleation score is 1.5 ± 0.35.

For MLCKRPWVTLFRLSKCFTSD, which amyloid nucleation score is on record?
Its amyloid nucleation score is 0.33 ± 0.56.

Which amyloid nucleation score does the source give for MLCVIHE here?
The amyloid nucleation score was 0.675 ± 0.25.

With MLDMVIYCISLYCSYTLRMR as the substance, how does the amyloid nucleation score read?
Its amyloid nucleation score is 1.42 ± 0.58.

With MLESWFMY as the substance, how does the amyloid nucleation score read?
The amyloid nucleation score was -0.154 ± 0.49.

With MLFAVDLVYGPDPLVNELTW as the substance, how does the amyloid nucleation score read?
Its amyloid nucleation score is 1.03 ± 0.4.

Which amyloid nucleation score does the source give for MLIQVCALEGRYEVTQCVGG here?
Its amyloid nucleation score is 1.82 ± 0.12.

With MLLLGTTSQDHHMTLGKYAG as the substance, how does the amyloid nucleation score read?
The amyloid nucleation score was 0.808 ± 0.74.

With MLLLVNSRLWLASIPIKYRA as the substance, how does the amyloid nucleation score read?
Its amyloid nucleation score is -0.332 ± 0.44.

For MLNSMVGQNFVGYNHALFFH, which amyloid nucleation score is on record?
Its amyloid nucleation score is 4.16 ± 0.089.

With MLNYAYSL as the substance, how does the amyloid nucleation score read?
The amyloid nucleation score was 1.42 ± 0.32.

With MLQPPPNESVSIILLKGSPA as the substance, how does the amyloid nucleation score read?
Its amyloid nucleation score is 5.165 ± 0.042.

With MLRQYCASFALVRCLNVTDR as the substance, how does the amyloid nucleation score read?
The amyloid nucleation score was 3.12 ± 0.13.

Which amyloid nucleation score does the source give for MLTFSTNDFVRFVMHVAQWD here?
The amyloid nucleation score was 2.1 ± 0.22.

With MLTTMCDELQLLVGPLGDRV as the substance, how does the amyloid nucleation score read?
Its amyloid nucleation score is 0.253 ± 0.3.

Which amyloid nucleation score does the source give for MLYVAVTS here?
The amyloid nucleation score was 0.459 ± 0.25.

Which amyloid nucleation score does the source give for MMARFCVAFQHVIESNLGGS here?
Its amyloid nucleation score is -1.4 ± 0.44.

For MMDFYRLDLDRTVVVRNRYL, which amyloid nucleation score is on record?
The amyloid nucleation score was 0.389 ± 0.74.

For MMHELHPRIELCG, which amyloid nucleation score is on record?
Its amyloid nucleation score is 6.12 ± 0.062.

For MMSGCGFSLKACLKEWRGGL, which amyloid nucleation score is on record?
The amyloid nucleation score was 7.572 ± 0.036.

Which amyloid nucleation score does the source give for MMSLPTLQSW here?
Its amyloid nucleation score is “inactive”.

For MNIDLHTHPSRSKMLCTTAN, which amyloid nucleation score is on record?
Its amyloid nucleation score is 0.914 ± 0.55.

Which amyloid nucleation score does the source give for MNKCIWGIYYR here?
Its amyloid nucleation score is -1.6 ± 1.1.

Which amyloid nucleation score does the source give for MNMRAGTEL here?
The amyloid nucleation score was 0.479 ± 0.54.

For MNSFQTRGSVPRRNPKIRAS, which amyloid nucleation score is on record?
The amyloid nucleation score was 0.998 ± 0.74.

Which amyloid nucleation score does the source give for MPHPLLLSFEENLIDCLYDH here?
Its amyloid nucleation score is -0.693 ± 0.64.

With MPYALIR as the substance, how does the amyloid nucleation score read?
Its amyloid nucleation score is -0.821 ± 0.35.

With MQMLIYGWSMCFILGAQV as the substance, how does the amyloid nucleation score read?
The amyloid nucleation score was 0.479 ± 0.74.

Which amyloid nucleation score does the source give for MQNANLIQTFEGYIYPMDIQ here?
Its amyloid nucleation score is 0.433 ± 0.74.

With MRCDTVMKSSYASVASMGL as the substance, how does the amyloid nucleation score read?
The amyloid nucleation score was “inactive”.

For MRDRMVAAARLFRGVSRLAF, which amyloid nucleation score is on record?
The amyloid nucleation score was -0.268 ± 0.48.

With MRFPGSGGRCLMTFLRLEWV as the substance, how does the amyloid nucleation score read?
Its amyloid nucleation score is 0.329 ± 0.28.

With MRLEWNRGLLCDDSYARTAR as the substance, how does the amyloid nucleation score read?
Its amyloid nucleation score is 0.83 ± 0.41.

Which amyloid nucleation score does the source give for MRLHSLGRCGQWSCDVGRER here?
The amyloid nucleation score was 0.918 ± 0.35.

With MRQWEQNSCYDLPAYLWNVG as the substance, how does the amyloid nucleation score read?
Its amyloid nucleation score is -0.079 ± 0.56.

Which amyloid nucleation score does the source give for MRSNWYGNVCVVTSNCDGLG here?
The amyloid nucleation score was 0.837 ± 0.48.

With MRSYIQFVFCGDCRFFNWVI as the substance, how does the amyloid nucleation score read?
The amyloid nucleation score was 6.298 ± 0.05.

Which amyloid nucleation score does the source give for MRWLYFPLF here?
The amyloid nucleation score was -0.801 ± 0.56.

Which amyloid nucleation score does the source give for MSAYR here?
Its amyloid nucleation score is -0.018 ± 0.65.

For MSCSSIRLFQDSIRLCRTSR, which amyloid nucleation score is on record?
The amyloid nucleation score was -0.02 ± 0.32.

With MSGFTFKTLGGISHYDFQLD as the substance, how does the amyloid nucleation score read?
The amyloid nucleation score was “inactive”.

Which amyloid nucleation score does the source give for MSGYVVFDMALKTRELMPAS here?
The amyloid nucleation score was 1.87 ± 0.48.

With MSLLYGS as the substance, how does the amyloid nucleation score read?
Its amyloid nucleation score is 0.523 ± 0.64.

For MSLPRSPAWGV, which amyloid nucleation score is on record?
Its amyloid nucleation score is 0.863 ± 0.27.

Which amyloid nucleation score does the source give for MSMLPCGSVYFNTRNAYLWL here?
The amyloid nucleation score was 6.678 ± 0.065.

Which amyloid nucleation score does the source give for MSRSSPMIHFETCWHASAGF here?
Its amyloid nucleation score is 3.82 ± 0.044.

For MSSHSTCRGVGINGLMVFVL, which amyloid nucleation score is on record?
The amyloid nucleation score was 8.073 ± 0.057.

With MSTLRRLRSRNRRFVNFVWG as the substance, how does the amyloid nucleation score read?
Its amyloid nucleation score is -0.019 ± 0.33.

Which amyloid nucleation score does the source give for MTCRMCGADCPLA here?
Its amyloid nucleation score is 0.539 ± 0.66.

With MTTALDGSLYVWCQCAVDVI as the substance, how does the amyloid nucleation score read?
Its amyloid nucleation score is 0.379 ± 0.54.

For MTVASCSTGCHD, which amyloid nucleation score is on record?
Its amyloid nucleation score is 0.084 ± 0.54.

For MVGNSNAPARVLCTVSKFGV, which amyloid nucleation score is on record?
The amyloid nucleation score was 0.587 ± 0.33.

For MVLDIFAS, which amyloid nucleation score is on record?
The amyloid nucleation score was 1.19 ± 0.44.

For MVLYKSRNRLSNYHRLAEST, which amyloid nucleation score is on record?
The amyloid nucleation score was -0.326 ± 1.1.
